T1: Drosophila Keren
T1 sequence: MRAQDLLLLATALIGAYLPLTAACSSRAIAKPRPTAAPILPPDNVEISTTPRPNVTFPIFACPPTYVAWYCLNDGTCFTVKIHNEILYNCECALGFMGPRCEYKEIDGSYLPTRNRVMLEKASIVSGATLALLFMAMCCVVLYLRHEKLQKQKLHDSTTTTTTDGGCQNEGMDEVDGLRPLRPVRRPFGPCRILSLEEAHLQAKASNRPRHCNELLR

T2: Drosophila EGF receptor (UniProt P04412)
T2 sequence: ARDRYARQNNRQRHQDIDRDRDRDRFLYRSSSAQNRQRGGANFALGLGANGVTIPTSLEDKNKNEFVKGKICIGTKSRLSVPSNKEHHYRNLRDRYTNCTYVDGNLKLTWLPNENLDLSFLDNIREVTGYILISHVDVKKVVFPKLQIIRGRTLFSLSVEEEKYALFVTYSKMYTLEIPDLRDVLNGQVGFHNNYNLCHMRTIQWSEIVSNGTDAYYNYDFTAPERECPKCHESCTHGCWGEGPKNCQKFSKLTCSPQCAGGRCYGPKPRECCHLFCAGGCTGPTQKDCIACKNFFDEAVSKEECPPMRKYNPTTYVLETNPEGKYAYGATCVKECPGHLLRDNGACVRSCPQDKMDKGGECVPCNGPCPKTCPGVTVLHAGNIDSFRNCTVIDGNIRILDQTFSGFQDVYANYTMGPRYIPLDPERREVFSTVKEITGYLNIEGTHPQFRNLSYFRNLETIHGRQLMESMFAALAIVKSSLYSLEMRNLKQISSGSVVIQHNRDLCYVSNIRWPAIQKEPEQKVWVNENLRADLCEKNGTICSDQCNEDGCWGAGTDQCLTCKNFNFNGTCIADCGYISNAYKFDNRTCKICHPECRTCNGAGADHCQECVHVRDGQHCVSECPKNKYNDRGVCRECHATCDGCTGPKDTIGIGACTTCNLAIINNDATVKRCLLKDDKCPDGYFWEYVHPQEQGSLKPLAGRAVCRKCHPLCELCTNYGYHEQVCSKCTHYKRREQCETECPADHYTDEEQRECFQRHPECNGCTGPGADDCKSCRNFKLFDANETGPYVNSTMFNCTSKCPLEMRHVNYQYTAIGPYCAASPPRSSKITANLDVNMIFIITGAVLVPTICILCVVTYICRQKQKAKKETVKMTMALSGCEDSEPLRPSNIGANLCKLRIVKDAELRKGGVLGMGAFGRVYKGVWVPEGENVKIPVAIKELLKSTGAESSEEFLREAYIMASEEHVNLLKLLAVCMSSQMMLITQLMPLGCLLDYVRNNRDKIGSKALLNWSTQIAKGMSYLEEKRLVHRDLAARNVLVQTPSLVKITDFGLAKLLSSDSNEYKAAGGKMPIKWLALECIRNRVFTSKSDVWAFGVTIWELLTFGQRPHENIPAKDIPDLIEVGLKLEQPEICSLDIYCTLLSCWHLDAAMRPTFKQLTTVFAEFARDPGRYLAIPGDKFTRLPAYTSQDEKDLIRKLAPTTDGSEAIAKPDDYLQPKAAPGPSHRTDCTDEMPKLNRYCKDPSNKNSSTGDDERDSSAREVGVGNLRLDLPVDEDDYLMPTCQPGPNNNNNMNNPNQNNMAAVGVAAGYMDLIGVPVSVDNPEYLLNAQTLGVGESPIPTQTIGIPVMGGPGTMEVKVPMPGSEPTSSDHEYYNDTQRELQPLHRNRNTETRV

T3: Drosophila Gurken
T3 sequence: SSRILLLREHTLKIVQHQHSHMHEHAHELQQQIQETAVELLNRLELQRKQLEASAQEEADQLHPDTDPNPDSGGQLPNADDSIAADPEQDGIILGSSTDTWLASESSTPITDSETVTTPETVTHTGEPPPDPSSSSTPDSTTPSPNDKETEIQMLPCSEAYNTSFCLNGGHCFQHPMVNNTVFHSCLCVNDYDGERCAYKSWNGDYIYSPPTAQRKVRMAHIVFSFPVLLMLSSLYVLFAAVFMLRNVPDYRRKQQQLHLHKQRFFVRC

T4: GFP-Spitz (Drosophila Spitz with EGFP inserted between residues 33 and 34)
T4 sequence: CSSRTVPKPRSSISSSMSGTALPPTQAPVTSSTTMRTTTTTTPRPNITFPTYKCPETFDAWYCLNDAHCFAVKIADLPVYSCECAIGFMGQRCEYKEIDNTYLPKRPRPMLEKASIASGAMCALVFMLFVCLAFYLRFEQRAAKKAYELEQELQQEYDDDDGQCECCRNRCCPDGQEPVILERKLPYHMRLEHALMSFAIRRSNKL

T5: Drosophila EGF receptor, P04412
T5 chain: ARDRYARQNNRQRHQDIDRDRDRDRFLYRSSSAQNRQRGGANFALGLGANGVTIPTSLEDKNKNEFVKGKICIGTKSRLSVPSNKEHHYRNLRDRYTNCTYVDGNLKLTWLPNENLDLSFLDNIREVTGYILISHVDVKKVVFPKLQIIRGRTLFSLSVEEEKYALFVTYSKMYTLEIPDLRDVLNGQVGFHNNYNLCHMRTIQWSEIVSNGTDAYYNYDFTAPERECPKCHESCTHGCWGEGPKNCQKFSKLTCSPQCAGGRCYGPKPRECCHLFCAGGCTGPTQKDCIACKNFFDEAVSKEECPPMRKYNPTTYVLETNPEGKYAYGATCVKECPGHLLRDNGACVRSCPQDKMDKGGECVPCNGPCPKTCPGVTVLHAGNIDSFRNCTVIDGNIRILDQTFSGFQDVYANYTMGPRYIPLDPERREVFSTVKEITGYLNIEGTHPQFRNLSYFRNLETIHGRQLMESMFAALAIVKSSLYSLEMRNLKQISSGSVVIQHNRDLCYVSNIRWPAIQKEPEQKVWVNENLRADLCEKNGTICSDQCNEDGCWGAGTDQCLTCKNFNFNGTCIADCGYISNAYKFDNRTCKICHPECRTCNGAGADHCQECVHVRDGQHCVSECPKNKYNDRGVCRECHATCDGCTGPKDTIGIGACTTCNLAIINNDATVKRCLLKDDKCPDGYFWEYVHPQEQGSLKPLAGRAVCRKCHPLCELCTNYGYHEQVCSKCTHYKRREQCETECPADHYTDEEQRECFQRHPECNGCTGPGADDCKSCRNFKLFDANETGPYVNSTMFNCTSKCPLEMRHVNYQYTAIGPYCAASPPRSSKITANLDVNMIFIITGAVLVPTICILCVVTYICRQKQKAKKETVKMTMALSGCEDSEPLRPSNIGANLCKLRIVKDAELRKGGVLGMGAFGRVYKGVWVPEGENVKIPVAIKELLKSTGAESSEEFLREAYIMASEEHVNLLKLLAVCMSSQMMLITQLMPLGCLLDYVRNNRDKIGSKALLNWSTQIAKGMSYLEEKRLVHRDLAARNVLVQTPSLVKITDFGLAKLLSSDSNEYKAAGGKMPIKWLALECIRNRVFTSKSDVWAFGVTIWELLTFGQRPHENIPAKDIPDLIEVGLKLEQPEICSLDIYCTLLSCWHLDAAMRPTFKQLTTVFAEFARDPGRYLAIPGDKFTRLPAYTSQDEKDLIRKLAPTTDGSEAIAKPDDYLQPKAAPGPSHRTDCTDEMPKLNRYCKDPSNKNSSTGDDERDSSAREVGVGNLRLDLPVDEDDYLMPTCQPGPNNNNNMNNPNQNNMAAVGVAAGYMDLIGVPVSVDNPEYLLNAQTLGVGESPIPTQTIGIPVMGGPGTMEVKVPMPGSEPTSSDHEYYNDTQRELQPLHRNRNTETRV

T6: Drosophila Delta, P10041
T6 chain: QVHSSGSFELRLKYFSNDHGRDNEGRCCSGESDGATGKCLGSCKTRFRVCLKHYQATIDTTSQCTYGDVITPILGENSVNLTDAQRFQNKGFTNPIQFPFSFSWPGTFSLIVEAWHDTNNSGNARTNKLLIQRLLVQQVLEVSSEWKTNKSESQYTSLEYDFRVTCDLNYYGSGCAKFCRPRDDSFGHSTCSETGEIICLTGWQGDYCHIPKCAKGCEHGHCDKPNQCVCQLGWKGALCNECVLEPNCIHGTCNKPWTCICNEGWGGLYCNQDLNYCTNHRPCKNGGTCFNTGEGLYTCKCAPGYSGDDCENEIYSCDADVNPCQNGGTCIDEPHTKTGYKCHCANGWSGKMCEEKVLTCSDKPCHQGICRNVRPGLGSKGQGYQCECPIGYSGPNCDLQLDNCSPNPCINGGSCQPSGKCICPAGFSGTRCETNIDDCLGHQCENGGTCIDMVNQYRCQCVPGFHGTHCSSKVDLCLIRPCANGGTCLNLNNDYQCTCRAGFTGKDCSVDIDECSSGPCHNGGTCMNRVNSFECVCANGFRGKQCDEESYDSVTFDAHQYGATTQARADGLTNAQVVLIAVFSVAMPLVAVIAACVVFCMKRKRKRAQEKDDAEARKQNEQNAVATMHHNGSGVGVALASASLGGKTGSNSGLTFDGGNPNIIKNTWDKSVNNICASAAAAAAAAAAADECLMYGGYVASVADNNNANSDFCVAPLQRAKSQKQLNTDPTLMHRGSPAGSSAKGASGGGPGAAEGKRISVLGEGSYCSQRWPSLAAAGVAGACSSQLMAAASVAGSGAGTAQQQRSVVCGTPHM


Experiments:
Drosophila Keren = test system: T1, Drosophila Keren
Drosophila EGF receptor = biological target: T2, Drosophila EGF receptor
Drosophila Gurken = test system: T3, Drosophila Gurken
[1] = test system: human TGFα (EGFP inserted between residues 32 and 33)
[2] = test system: T4, GFP-Spitz (Drosophila Spitz with EGFP inserted between residues 33 and 34)
[3] = test system: uncleavable Spitz-TGFα chimera (Spitz with residues 140-160 replaced by the equivalent residues from TGFα, with the TGFα C-terminus)
[4] = biological target: T5, Drosophila EGF receptor, P04412
[5] = biological target: human TGFα (EGFP inserted between residues 32 and 33); remark: listed apart in the source
[6] = biological target: uncleavable Spitz-TGFα chimera with Spitz residue G143 restored in the TGFα TMD
[7] = biological target: uncleavable Spitz-TGFα chimera (Spitz with residues 140-160 replaced by the equivalent residues from TGFα, with the TGFα C-terminus); remark: listed apart in the source
Drosophila Delta, P10041 = biological target: T6, Drosophila Delta, P10041

Molecule | cleavage of polypeptide substrates (Drosophila Keren) | cleavage of polypeptide substrates (Drosophila EGF receptor) | cleavage of polypeptide substrates (Drosophila Gurken) | cleavage of polypeptide substrates [1] | cleavage of polypeptide substrates [2] | cleavage of polypeptide substrates [3] | cleavage of type-I membrane proteins [4] | cleavage of type-I membrane proteins [5] | cleavage of the uncleavable Spitz-TGFα chimera with single Spitz residues put back [6] | cleavage of type-I membrane proteins (human TGN38) | cleavage of Spitz/TGFα TMD chimeras, without Star, with batimastat [7] | cleavage of type-I membrane proteins (Drosophila Delta, P10041)
Drosophila Rhomboid-4 | Rhomboid-4 cleaves all the polypeptide substrates tested so far, including ... Keren | Rhomboid-4 cleaves all the polypeptide substrates tested so far, including ... the completely unrelated Drosophila EGF receptor | Rhomboid-4 cleaves all the polypeptide substrates tested so far, including ... Gurken | Rhomboid-4 cleaves all the polypeptide substrates tested so far, including ... human TGFα | Rhomboid-4 cleaves all the polypeptide substrates tested so far, including Spitz | Rhomboid-4 cleaves all the polypeptide substrates tested so far, including ... the 'non-cleavable' Spitz/TGFα chimera | – | – | – | – | – | –
Drosophila Rhomboid-1 (triple HA tag at the N-terminus) (protein) MENPTQNVNETKVDLGQEKEKEASQEEEHATAAKETIIDIPAACSSSSNSSSYDTDCSTASSTCCTRQGEHIYMQREAIPATPLPESEDIGLLKYVHRQHWPWFILVISIIEIAIFAYDRYTMPAQNFGLPVPIPSDSVLVYRPDRRLQVWRFFSYMFLHANWFHLGFNIVIQLFFGIPLEVMHGTARIGVIYMAGVFAGSLGTSVVDSEVFLVGASGGVYALLAAHLANITLNYAHMKSASTQLGSVVIFVSCDLGYALYTQYFDGSAFAKGPQVSYIAHLTGALAGLTIGFLVLKNFGHREYEQLIWWLALGVYCAFTVFAIVFNLINTVTAQLMEEQGEVITQHLLHDLGVS | – | – | – | – | – | – | Rhomboid-1 could not cleave other type-I membrane proteins including Drosophila EGF receptor | Rhomboid-1 could not cleave other type-I membrane proteins including ... human TGFα | substitution of only Spitz residue G143 restored cleavage of this chimeric substrate | Rhomboid-1 could not cleave other type-I membrane proteins including ... human TGN38 | replacing the remaining 5 residues (residues 140-160) abolished cleavage | Rhomboid-1 could not cleave other type-I membrane proteins including ... Drosophila Delta
